Our source for the Kd values is publication PMC5586252 (2017).

Where no end group is shown, it is not given here.

The labels stand for the following.
B1: native Cyk4 peptide (synthetic) (peptide)
chain: LSTIDESGS
modifications: synthetic peptide; exact ends and termini not given, the printed motif 143-LSTIDESGS-151 is used as the core

The target in one assay is T1, B′γ1 regulatory subunit (UniProt Q13362-2 1-449). Put plainly: ITC. Background: In ITC the heat of successive injections is recorded.
A word on the Kd: it is the equilibrium constant for the complex coming apart. A low value points to tighter binding. In turn, LSTIDEEGE [Cyk4 S149E/S151E peptide (synthetic, phosphomimetic)] came in with a Kd of 1300 nM.
NKRLSTIDEEGS [Cyk4 peptide S149E] displayed a Kd of 1590 nM.
Still for that read-out and setting: the result for B1 reads 22700 nM.

A further assay deals with PP2A-B′γ1 holoenzyme (UniProt P30153 1-589; P67775 1-309; Q13362-2 1-449). Put plainly: BLI.
PP2A-B′γ1 holoenzyme, sequence (P30153 whole entry, chain 1 of 3, other chains not shown): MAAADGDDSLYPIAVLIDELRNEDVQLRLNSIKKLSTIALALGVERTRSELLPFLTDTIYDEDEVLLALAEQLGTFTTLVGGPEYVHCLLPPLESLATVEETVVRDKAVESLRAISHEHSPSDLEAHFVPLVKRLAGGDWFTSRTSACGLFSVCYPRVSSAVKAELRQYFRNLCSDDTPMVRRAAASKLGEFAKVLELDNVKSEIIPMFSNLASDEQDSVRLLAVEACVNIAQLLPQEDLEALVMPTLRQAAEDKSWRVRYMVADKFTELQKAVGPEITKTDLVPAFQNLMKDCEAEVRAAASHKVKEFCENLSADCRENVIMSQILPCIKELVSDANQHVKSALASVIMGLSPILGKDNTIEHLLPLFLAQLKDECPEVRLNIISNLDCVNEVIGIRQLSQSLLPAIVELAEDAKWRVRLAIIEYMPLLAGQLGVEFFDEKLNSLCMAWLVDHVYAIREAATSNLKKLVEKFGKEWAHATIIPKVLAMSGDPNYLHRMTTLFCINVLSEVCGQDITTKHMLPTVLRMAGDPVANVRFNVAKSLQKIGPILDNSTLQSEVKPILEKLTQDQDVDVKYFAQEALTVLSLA
PP2A-B′γ1 holoenzyme, sequence (P67775 whole entry, chain 2 of 3, other chains not shown): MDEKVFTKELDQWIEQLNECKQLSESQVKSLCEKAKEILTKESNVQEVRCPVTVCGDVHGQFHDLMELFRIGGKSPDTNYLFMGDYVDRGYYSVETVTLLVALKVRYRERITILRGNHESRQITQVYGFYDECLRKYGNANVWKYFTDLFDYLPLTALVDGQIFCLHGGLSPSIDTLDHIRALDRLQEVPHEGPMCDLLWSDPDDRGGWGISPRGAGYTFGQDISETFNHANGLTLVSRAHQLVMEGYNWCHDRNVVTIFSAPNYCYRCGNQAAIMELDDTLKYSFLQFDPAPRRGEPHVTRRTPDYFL
Molecule IKKLSPIIEDSREATH [GST-tagged BUB1B peptide (B′-binding motif)] gave a Kd of 34 nM.
On to YQPLECIVEETEGKLN (not fully specified) [GST-tagged ANKHD1 peptide (B′-binding motif)], for which the affinity, expressed as Kd, was 320 nM.
Same read-out and setting: the result for LSSIPEASEYDWRNYQ [GST-tagged C3orf67 peptide (B′-binding motif)] reads 43 nM; that for LETIPESEPSGMNRIL [GST-tagged DENND2C peptide (B′-binding motif)], 221 nM.
Turning to KLPHVLSSIAEEEHHL [GST-tagged SYT16 peptide (B′-binding motif)], the Kd is 121 nM.
The same measure, in the same setting: the result for FQHNRKLESVAEEHEI [GST-tagged KIAA1524 (CIP2A) peptide (B′-binding motif)] reads 310 nM.

For the next assay, the target named is B′α regulatory subunit (UniProt Q15172 1-486). Nature of the assay: BLI. In general terms: BLI is a label-free optical method that tracks binding on a fibre tip over time.
B′α regulatory subunit, sequence (Q15172 whole entry): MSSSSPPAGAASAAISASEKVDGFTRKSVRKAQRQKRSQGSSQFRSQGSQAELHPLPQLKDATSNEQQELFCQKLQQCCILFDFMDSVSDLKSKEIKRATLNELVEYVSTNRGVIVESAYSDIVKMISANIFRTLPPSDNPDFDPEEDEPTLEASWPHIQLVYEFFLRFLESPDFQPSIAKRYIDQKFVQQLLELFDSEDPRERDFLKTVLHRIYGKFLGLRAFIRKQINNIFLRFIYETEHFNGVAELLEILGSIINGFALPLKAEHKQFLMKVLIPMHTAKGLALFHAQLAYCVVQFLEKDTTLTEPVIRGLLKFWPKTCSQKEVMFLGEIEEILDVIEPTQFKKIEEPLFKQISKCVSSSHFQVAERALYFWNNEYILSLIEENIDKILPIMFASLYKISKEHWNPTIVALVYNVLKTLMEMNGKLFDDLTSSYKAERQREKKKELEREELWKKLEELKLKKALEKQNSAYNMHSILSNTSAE
Turning to QNQFSEHDKTLYRIPE [GST-tagged TJP1 peptide (B′-binding motif)], binding was put at a Kd of 490 nM.
Turning to IKKLSPIIEDSREATH [GST-tagged BUB1B peptide (B′-binding motif)], the Kd turned out to be 226 nM.
Molecule HVLYPIPESSSDSPLA [GST-tagged STON1 peptide (B′-binding motif)] gave a Kd of 11800 nM.
Molecule YQPLECIVEETEGKLN (not fully specified) [GST-tagged ANKHD1 peptide (B′-binding motif)] yielded a Kd of 1090 nM.
LSSIPEASEYDWRNYQ [GST-tagged C3orf67 peptide (B′-binding motif)] gave a Kd of 450 nM.
Turning to KLPHVLSSIAEEEHHL [GST-tagged SYT16 peptide (B′-binding motif)], the Kd turned out to be 197 nM.
Still for that read-out and setting: the result for FQHNRKLESVAEEHEI [GST-tagged KIAA1524 (CIP2A) peptide (B′-binding motif)] reads 330 nM.

Another assay addresses T1, B′γ1 regulatory subunit. Put plainly: BLI.
With QNQFSEHDKTLYRIPE [GST-tagged TJP1 peptide (B′-binding motif)], the Kd was 161 nM.
Same read-out and setting: the result for IKKLSPIIEDSREATH [GST-tagged BUB1B peptide (B′-binding motif)] reads 43 nM.
Molecule HVLYPIPESSSDSPLA [GST-tagged STON1 peptide (B′-binding motif)] returned a Kd of 3000 nM.
The same measure, in the same setting: the result for YQPLECIVEETEGKLN (not fully specified) [GST-tagged ANKHD1 peptide (B′-binding motif)] reads 2100 nM.
On the same count and under the same terms, the result for LSSIPEASEYDWRNYQ [GST-tagged C3orf67 peptide (B′-binding motif)] reads 62 nM.
LETIPESEPSGMNRIL [GST-tagged DENND2C peptide (B′-binding motif)]: the affinity, expressed as Kd, was 530 nM.
Same read-out and setting: the result for KLPHVLSSIAEEEHHL [GST-tagged SYT16 peptide (B′-binding motif)] reads 340 nM.
Take FQHNRKLESVAEEHEI [GST-tagged KIAA1524 (CIP2A) peptide (B′-binding motif)]: binding was characterised by a dissociation constant (Kd) of 121 nM.
